Test results from patent publication US20250066745A1, “MUTANTS AND USE THEREOF” (BGI SHENZHEN, priority 2021, published 2025).

What was measured:
Type in all cases: biochemical
Set-up in all cases: key to Activity of mutant relative to wild-type Gaussia luciferase without the signal peptide: ratio of mutant luminescence intensity to wild-type Gaussia luciferase
[1] = Luminescence activity assay of purified Gaussia luciferase mutants on coelenterazine derivative ZS2; conditions: Substrate ZS2 (Table 16)
Summary of the method: (§1)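 Readout: luminescence intensity, as ratio to signal-peptide-free wild-type enzyme. Enzyme 1 μg/mL, substrate 100 μM stock, 10 μL + 90 μL; buffer 50 mM Tris-HCl pH 8.0, 100 mM NaCl, 0.1% Tween-20.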

[2] = Luminescence activity assay of purified Gaussia luciferase mutants on fluoro-coelenterazine; conditions: Substrate f-CTZ (Table 16)
Protocol: In this Example, the protein concentration was determined with a BCA quantitative kit (Thermo Scientific™ Pierce™ BCA Protein Assay Kit) accurately. The purified luciferase obtained in Example 5 was diluted with diluent (50 mM Tris-HCl, pH 8.0, 100 mM NaCl, 0.1% (v/v) Tween-20) to 1 μg/mL. The diluted luciferase, taken for 10 μL, was moved into a black 96-well plate, then added with 90 μL of the substrates coelenterazine, fluoro-coelenterazine or coelenterazine derivative ZS2 (purchased from Biolab) which was diluted into 100 μM with the same diluent, and the luminescence intensity of the plate was read with a self-luminescence module of a microplate reader. The mutation site of the mutant, the measured luminescence intensity, the ratio of luminescence intensities of the advantageous mutants to the wild-type Gaussia luciferase without the signal peptide having the sequence shown in SEQ ID NO: 3 are shown in Table 15. The results of catalytic activity assay of the advantageous mutants relative to the wild-type Gaussia luciferase without the signal peptide having the sequence shown in SEQ ID NO: 3 on substrate coelenterazine are shown in FIG. 6. […] The results of catalytic activity assay of the advantageous mutants relative to the wild-type Gaussia luciferase without the signal peptide having the sequence shown in SEQ ID NO: 3 on substrate fluoro-coelenterazine are shown in FIG. 7.
The new mutant library constructed in Example 7 was screened and tested for substrate specificity. Expression and purification schemes were the same as that in Example 5, and the activity assay scheme was the same as that in Example 6. The respective catalytic activities of combinatorial mutants on coelenterazine, fluoro-coelenterazine or coelenterazine derivative ZS2, and coelenterazine derivative ZS26 (purchased from BIOLAB) were assayed, and comparisons among the substrate specificities of the combinatorial mutants were based on the ratios of catalytic activities on two corresponding substrates.

[3] = Luminescence activity assay of purified Gaussia luciferase mutants on coelenterazine; conditions: Substrate CTZ (Table 16)
Summary of the method: as §1

B1: K66N H79K P84A E102E S103I D123N L124M V138E K159N I179*: Gaussia luciferase mutant (protein)
chain: MGVKVLFALICIAVAEAKPTENNEDFNIVAVASNFATTDLDADRGKLPGKKLPLEVLKEMEANARNAGCTRGCLICLSKIKCTAKMKKFIPGRCHTYEGDKEIAQGGIGEAIVDIPEIPGFKNMEPMEQFIAQVDLCEDCTTGCLKGLANVQCSDLLKNWLPQRCATFASKIQGQVDKKGAGGD
modifications: SIGNAL (1)..(17)
notes: Gaussia luciferase mutant
[1]
  Activity of mutant relative to wild-type Gaussia luciferase without the signal peptide: 0.001
[2]
  Activity of mutant relative to wild-type Gaussia luciferase without the signal peptide: 0.009
[3]
  Activity of mutant relative to wild-type Gaussia luciferase without the signal peptide: 0.000

B2: K66N E102A S103T A104G E110G D123N L124M V138D K180: Gaussia luciferase mutant (protein)
chain: MGVKVLFALICIAVAEAKPTENNEDFNIVAVASNFATTDLDADRGKLPGKKLPLEVLKEMEANARNAGCTRGCLICLSHIKCTPKMKKFIPGRCHTYEGDKATGQGGIGGAIVDIPEIPGFKNMEPMEQFIAQVDLCDDCTTGCLKGLANVQCSDLLKKWLPQRCATFASKIQGQVDKIKGAGGD
[1]
  Activity of mutant relative to wild-type Gaussia luciferase without the signal peptide: 1.880
[2]
  Activity of mutant relative to wild-type Gaussia luciferase without the signal peptide: 6.874
[3]
  Activity of mutant relative to wild-type Gaussia luciferase without the signal peptide: 0.945

B3: K66N E102D S103T E110G L124M V138E: Gaussia luciferase mutant (protein)
chain: MGVKVLFALICIAVAEAKPTENNEDFNIVAVASNFATTDLDADRGKLPGKKLPLEVLKEMEANARNAGCTRGCLICLSHIKCTPKMKKFIPGRCHTYEGDKDTAQGGIGGAIVDIPEIPGFKDMEPMEQFIAQVDLCEDCTTGCLKGLANVQCSDLLKKWLPQRCATFASKIQGQVDKIKGAGGD
modifications: SIGNAL (1)..(17)
notes: Gaussia luciferase mutant
[1]
  Activity of mutant relative to wild-type Gaussia luciferase without the signal peptide: 0.471
[2]
  Activity of mutant relative to wild-type Gaussia luciferase without the signal peptide: 0.794
[3]
  Activity of mutant relative to wild-type Gaussia luciferase without the signal peptide: 0.134

B4: K66N P84L E102A S103I A104G E110P D123N L124M V138D: Gaussia luciferase mutant (protein)
chain: MGVKVLFALICIAVAEAKPTENNEDFNIVAVASNFATTDLDADRGKLPGKKLPLEVLKEMEANARNAGCTRGCLICLSHIKCTLKMKKFIPGRCHTYEGDKAIGQGGIGPAIVDIPEIPGFKNMEPMEQFIAQVDLCDDCTTGCLKGLANVQCSDLLKKWLPQRCATFASKIQGQVDKIKGAGGD
modifications: SIGNAL (1)..(17)
notes: Gaussia luciferase mutant
[1]
  Activity of mutant relative to wild-type Gaussia luciferase without the signal peptide: 0.041
[2]
  Activity of mutant relative to wild-type Gaussia luciferase without the signal peptide: 5.207
[3]
  Activity of mutant relative to wild-type Gaussia luciferase without the signal peptide: 0.513

B5: K66N H79K P84K E102K S103I E110P L124M: Gaussia luciferase mutant (protein)
chain: MGVKVLFALICIAVAEAKPTENNEDFNIVAVASNFATTDLDADRGKLPGKKLPLEVLKEMEANARNAGCTRGCLICLSKIKCTKKMKKFIPGRCHTYEGDKKIAQGGIGPAIVDIPEIPGFKDMEPMEQFIAQVDLCVDCTTGCLKGLANVQCSDLLKKWLPQRCATFASKIQGQVDKIKGAGGD
modifications: SIGNAL (1)..(17)
notes: Gaussia luciferase mutant
[1]
  Activity of mutant relative to wild-type Gaussia luciferase without the signal peptide: 1.118
[2]
  Activity of mutant relative to wild-type Gaussia luciferase without the signal peptide: 1.728
[3]
  Activity of mutant relative to wild-type Gaussia luciferase without the signal peptide: 0.755

B6: K66R P84A E102K A104G E110A L124M V138E: Gaussia luciferase mutant (protein)
chain: MGVKVLFALICIAVAEAKPTENNEDFNIVAVASNFATTDLDADRGKLPGKKLPLEVLKEMEANARRAGCTRGCLICLSHIKCTAKMKKFIPGRCHTYEGDKKSGQGGIGAAIVDIPEIPGFKDMEPMEQFIAQVDLCEDCTTGCLKGLANVQCSDLLKKWLPQRCATFASKIQGQVDKIKGAGGD
modifications: SIGNAL (1)..(17)
notes: Gaussia luciferase mutant
[1]
  Activity of mutant relative to wild-type Gaussia luciferase without the signal peptide: 2.637
[2]
  Activity of mutant relative to wild-type Gaussia luciferase without the signal peptide: 10.315
[3]
  Activity of mutant relative to wild-type Gaussia luciferase without the signal peptide: 1.073

B7: K66N H79K E102D E110P L124M: Gaussia luciferase mutant (protein)
chain: MGVKVLFALICIAVAEAKPTENNEDFNIVAVASNFATTDLDADRGKLPGKKLPLEVLKEMEANARNAGCTRGCLICLSKIKCTPKMKKFIPGRCHTYEGDKDSAQGGIGPAIVDIPEIPGFKDMEPMEQFIAQVDLCVDCTTGCLKGLANVQCSDLLKKWLPQRCATFASKIQGQVDKIKGAGGD
modifications: SIGNAL (1)..(17)
notes: Gaussia luciferase mutant
[1]
  Activity of mutant relative to wild-type Gaussia luciferase without the signal peptide: 0.751
[2]
  Activity of mutant relative to wild-type Gaussia luciferase without the signal peptide: 0.404
[3]
  Activity of mutant relative to wild-type Gaussia luciferase without the signal peptide: 1.554

B8: K66N P84A E102K S103I E110G L124M V138E: Gaussia luciferase mutant (protein)
chain: MGVKVLFALICIAVAEAKPTENNEDFNIVAVASNFATTDLDADRGKLPGKKLPLEVLKEMEANARNAGCTRGCLICLSHIKCTAKMKKFIPGRCHTYEGDKKIAQGGIGGAIVDIPEIPGFKDMEPMEQFIAQVDLCEDCTTGCLKGLANVQCSDLLKKWLPQRCATFASKIQGQVDKIKGAGGD
modifications: SIGNAL (1)..(17)
notes: Gaussia luciferase mutant
[1]
  Activity of mutant relative to wild-type Gaussia luciferase without the signal peptide: 0.620
[2]
  Activity of mutant relative to wild-type Gaussia luciferase without the signal peptide: 0.896
[3]
  Activity of mutant relative to wild-type Gaussia luciferase without the signal peptide: 0.654

B9: K66R H79K P84K E102D S103I A104G L124M V138E: Gaussia luciferase mutant (protein)
chain: MGVKVLFALICIAVAEAKPTENNEDFNIVAVASNFATTDLDADRGKLPGKKLPLEVLKEMEANARRAGCTRGCLICLSKIKCTKKMKKFIPGRCHTYEGDKDIGQGGIGEAIVDIPEIPGFKDMEPMEQFIAQVDLCEDCTTGCLKGLANVQCSDLLKKWLPQRCATFASKIQGQVDKIKGAGGD
modifications: SIGNAL (1)..(17)
notes: Gaussia luciferase mutant
[1]
  Activity of mutant relative to wild-type Gaussia luciferase without the signal peptide: 0.459
[2]
  Activity of mutant relative to wild-type Gaussia luciferase without the signal peptide: 0.857
[3]
  Activity of mutant relative to wild-type Gaussia luciferase without the signal peptide: 0.407

B10: A42G Q152H T167G S170T G174N K178S A182Y G183A: Gaussia luciferase mutant (protein)
chain: MGVKVLFALICIAVAEAKPTENNEDFNIVAVASNFATTDLDGDRGKLPGKKLPLEVLKEMEANARKAGCTRGCLICLSHIKCTPKMKKFIPGRCHTYEGDKESAQGGIGEAIVDIPEIPGFKDLEPMEQFIAQVDLCVDCTTGCLKGLANVHCSDLLKKWLPQRCAGFATKIQNQVDSIKGYAGD
modifications: SIGNAL (1)..(17)
notes: Gaussia luciferase mutant
[1]
  Activity of mutant relative to wild-type Gaussia luciferase without the signal peptide: 0.001
[2]
  Activity of mutant relative to wild-type Gaussia luciferase without the signal peptide: 0.657
[3]
  Activity of mutant relative to wild-type Gaussia luciferase without the signal peptide: 0.568
